How the values were obtained:
Experiment in all cases: SPR
Mouse EphA4 Fc fusion = target: T1, Mouse EphA4 Fc fusion (Mouse, UniProt Q03137 20-547)
T1 construct: SPR; Sino Biologics 50575-M02H

Human EphB4 Fc fusion = target: T2, Human EphB4 Fc fusion (Human, UniProt P54760 16-539)
T2 construct: SPR; Sino Biologics 10235-H02H
T2 sequence (looked up): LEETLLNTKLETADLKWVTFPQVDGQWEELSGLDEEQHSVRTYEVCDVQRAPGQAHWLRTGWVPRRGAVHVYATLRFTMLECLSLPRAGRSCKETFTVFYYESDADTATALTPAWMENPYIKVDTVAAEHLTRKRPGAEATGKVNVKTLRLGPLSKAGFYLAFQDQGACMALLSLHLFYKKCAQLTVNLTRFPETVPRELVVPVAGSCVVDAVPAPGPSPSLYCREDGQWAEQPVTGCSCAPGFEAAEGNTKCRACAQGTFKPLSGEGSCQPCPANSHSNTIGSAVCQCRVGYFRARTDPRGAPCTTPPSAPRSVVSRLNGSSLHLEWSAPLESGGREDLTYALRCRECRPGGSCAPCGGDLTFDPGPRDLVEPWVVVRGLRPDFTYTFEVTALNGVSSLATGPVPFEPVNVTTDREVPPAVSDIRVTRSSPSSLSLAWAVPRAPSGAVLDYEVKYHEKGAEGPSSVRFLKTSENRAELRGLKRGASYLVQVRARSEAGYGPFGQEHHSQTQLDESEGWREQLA

Human EphA6 Fc fusion = target: T3, Human EphA6 Fc fusion (Human, UniProt Q9UF33 23-550, limits assumed)
T3 construct: SPR; R&D Systems 5606-A6
T3 sequence (looked up): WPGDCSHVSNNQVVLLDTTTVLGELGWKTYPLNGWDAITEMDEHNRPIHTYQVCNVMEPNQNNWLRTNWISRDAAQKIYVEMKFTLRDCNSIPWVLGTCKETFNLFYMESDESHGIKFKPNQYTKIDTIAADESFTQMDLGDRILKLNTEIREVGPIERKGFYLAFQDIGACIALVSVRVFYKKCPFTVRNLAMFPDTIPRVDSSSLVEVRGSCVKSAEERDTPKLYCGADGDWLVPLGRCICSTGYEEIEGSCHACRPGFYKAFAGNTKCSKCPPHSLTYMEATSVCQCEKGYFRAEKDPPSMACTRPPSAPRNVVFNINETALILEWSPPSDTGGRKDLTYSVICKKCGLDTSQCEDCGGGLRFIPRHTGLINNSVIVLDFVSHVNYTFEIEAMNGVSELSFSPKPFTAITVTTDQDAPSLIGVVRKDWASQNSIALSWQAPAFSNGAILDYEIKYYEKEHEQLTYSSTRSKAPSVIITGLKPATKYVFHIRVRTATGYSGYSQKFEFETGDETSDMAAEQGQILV

Human EphA4 Fc fusion = target: T4, Human EphA4 Fc fusion (Human, UniProt P54764 20-547)
T4 construct: SPR; Sino Biologics 11314-H03H
T4 sequence (P54764 20-547 limits assumed): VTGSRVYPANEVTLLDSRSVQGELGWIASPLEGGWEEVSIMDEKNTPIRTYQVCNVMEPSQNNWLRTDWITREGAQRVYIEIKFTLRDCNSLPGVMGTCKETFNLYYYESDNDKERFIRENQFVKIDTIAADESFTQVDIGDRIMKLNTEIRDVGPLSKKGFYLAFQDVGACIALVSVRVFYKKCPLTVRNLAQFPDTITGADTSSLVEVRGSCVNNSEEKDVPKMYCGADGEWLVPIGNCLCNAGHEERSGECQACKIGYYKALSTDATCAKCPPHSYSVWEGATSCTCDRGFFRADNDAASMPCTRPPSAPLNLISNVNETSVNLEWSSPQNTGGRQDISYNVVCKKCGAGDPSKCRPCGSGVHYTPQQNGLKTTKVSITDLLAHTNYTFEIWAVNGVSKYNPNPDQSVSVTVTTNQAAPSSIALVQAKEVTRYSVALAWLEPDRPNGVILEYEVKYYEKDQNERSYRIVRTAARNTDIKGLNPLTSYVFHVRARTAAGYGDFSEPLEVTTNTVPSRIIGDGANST

[1] = target: T5, Human EphA5, biotinylated (Human, UniProt P54756 25-573, limits assumed, 3.1 mol biotin/monomer)
T5 construct: SPR; R&D Systems 3036-A5
T5 sequence (P54756 25-573 limits assumed): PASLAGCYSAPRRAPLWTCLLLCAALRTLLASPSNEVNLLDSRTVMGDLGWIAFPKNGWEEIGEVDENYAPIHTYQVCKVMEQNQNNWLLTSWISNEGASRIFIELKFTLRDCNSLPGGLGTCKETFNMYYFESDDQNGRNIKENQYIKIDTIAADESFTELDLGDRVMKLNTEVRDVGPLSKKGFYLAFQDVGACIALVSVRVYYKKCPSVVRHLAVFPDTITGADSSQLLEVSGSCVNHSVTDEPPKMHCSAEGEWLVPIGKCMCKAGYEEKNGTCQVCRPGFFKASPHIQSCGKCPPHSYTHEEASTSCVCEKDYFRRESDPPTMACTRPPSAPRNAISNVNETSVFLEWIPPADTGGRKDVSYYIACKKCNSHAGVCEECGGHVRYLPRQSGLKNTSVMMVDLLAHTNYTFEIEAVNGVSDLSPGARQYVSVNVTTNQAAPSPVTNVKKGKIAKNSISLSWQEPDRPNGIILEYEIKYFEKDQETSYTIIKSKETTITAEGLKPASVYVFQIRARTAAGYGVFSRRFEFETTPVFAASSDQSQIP

Human EphA7 Fc fusion = target: T6, Human EphA7 Fc fusion (Human, UniProt Q15375 28-555, limits assumed)
T6 construct: SPR; R&D Systems 6756-A7
T6 sequence (looked up): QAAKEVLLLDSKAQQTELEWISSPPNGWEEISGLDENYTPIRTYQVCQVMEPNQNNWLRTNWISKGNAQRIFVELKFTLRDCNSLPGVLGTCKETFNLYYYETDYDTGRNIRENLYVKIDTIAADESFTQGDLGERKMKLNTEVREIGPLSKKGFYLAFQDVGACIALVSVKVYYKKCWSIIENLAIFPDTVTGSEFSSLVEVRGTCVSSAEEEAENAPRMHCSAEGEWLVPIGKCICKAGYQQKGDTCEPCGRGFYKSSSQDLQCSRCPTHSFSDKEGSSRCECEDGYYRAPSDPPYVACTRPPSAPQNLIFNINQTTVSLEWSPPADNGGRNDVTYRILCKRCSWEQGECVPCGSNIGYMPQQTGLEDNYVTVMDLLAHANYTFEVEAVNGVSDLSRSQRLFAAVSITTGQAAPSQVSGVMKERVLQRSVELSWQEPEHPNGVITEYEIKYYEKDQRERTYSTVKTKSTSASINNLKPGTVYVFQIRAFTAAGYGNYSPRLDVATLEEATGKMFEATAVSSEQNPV

Human EphA1 Fc fusion = target: T7, Human EphA1 Fc fusion (Human, UniProt P21709 26-547)
T7 construct: SPR; Sino Biologics 15789-H02H
T7 sequence (looked up): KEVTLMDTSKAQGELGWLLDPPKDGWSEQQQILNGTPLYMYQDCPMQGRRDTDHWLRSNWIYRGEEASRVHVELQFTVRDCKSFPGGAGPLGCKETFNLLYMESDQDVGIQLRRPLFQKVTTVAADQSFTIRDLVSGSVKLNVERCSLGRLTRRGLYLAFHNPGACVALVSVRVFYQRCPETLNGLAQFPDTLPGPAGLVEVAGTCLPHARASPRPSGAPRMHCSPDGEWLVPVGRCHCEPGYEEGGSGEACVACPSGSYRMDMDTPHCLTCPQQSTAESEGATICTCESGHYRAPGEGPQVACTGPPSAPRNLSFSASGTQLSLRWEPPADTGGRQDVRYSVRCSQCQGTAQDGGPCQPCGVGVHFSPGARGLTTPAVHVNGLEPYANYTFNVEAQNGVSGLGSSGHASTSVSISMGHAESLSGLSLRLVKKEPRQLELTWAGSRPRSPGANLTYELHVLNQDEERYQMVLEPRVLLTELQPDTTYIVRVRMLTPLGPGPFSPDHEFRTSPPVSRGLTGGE

Measured: binding result

T1 sequence (Q03137 20-547 limits assumed): as the sequence (P54764 20-547 limits assumed) above, with P59A, N121S, V124G, R250Q, S251N, T270S, K378R, N406S counted along it

B1: BCY6082 (peptide)
peptide: AXDCPLVNPLCLHPGWTC
modifications: not fully specified; as BCY6014 (N-terminal (β-Ala)-Sar10; HArg; TATA scaffold on the 3 Cys) + DM1-SS(SO3H)-
notes: Bicycle drug conjugate (BDC)
no binding: all assays above

B2: BCY6033 (peptide)
peptide: AXDCPLVNPLCLHPGWTC
modifications: not fully specified; as BCY6014 (N-terminal (β-Ala)-Sar10; HArg; TATA scaffold on the 3 Cys) + ValCit-MMAE
notes: Bicycle drug conjugate (BDC)
no binding: all assays above
